Literature values as cited in article PMC4366142.

Biological target: muscle voltage-gated sodium channel (UniProt P15390)
Chain of UniProt P15390 (P15390 whole entry): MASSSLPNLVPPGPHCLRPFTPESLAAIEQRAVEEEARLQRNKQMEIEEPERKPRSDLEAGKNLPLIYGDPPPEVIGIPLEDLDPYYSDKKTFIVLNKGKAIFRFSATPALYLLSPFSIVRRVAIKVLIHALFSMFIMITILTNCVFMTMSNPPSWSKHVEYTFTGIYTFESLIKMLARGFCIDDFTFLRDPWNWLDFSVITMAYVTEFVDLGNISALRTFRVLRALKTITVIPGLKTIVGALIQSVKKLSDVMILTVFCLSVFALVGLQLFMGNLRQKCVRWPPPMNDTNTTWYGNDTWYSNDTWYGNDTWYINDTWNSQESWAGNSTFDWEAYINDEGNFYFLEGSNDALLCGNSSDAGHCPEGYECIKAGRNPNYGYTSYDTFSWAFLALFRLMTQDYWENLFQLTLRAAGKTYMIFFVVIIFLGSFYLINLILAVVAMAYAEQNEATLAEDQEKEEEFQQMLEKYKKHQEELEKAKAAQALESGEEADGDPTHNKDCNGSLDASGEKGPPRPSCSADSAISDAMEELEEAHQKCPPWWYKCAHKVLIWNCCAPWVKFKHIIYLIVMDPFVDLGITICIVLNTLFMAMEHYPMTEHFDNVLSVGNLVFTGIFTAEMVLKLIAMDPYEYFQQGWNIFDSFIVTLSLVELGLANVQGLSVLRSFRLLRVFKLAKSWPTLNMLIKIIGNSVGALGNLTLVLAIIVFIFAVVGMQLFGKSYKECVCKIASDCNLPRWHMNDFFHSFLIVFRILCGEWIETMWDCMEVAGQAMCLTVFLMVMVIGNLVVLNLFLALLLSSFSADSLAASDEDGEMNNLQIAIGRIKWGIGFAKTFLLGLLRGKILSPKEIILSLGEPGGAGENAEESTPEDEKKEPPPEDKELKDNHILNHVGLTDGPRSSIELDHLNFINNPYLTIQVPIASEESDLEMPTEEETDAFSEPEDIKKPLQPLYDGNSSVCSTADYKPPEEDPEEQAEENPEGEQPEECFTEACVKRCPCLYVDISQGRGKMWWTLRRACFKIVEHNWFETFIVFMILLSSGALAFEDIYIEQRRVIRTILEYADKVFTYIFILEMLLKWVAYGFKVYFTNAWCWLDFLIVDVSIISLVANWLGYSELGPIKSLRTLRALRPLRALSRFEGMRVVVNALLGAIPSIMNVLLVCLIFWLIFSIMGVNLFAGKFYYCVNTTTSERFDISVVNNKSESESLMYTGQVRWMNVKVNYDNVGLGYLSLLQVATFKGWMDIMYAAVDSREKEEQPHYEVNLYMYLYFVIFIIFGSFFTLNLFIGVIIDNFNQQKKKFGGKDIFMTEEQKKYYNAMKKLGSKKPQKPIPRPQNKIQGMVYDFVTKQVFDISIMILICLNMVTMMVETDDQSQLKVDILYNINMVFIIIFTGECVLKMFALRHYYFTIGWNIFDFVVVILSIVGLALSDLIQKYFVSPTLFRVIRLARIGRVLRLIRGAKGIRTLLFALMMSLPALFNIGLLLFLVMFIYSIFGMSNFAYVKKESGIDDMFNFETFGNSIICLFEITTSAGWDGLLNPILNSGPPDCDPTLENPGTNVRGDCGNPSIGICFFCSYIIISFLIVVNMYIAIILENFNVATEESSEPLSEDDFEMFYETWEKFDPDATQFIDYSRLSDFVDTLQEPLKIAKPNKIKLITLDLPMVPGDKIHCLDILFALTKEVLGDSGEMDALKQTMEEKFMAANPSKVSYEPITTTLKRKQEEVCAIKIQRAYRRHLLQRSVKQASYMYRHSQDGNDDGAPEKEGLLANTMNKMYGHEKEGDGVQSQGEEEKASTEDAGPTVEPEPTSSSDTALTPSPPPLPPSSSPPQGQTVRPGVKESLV

## μ-conotoxin GIIIA (from UniProt P01523)
  Kd: 25 nM
